{"source": "the DeepSol protein solubility set"}
{"assay": "soluble on expression in E. coli; label from the status in PepcDB or PDB records"}
{"sequence": "MQVLHVCSEMFPLLKTGGLADVIGALPAAQIADGVDARVLLPAFPDIRRGVTDAQVVSRRDTFAGHITLLFGHYNGVGIYLIDAPHLYDRPGSPYHDTNLFAYTDNVLRFALLGWVGAEMASGLDPFWRPDVVHAHDWHAGLAPAYLAARGRPAKSVFTVHNLAYQGMFYAHHMNDIQLPWSFFNIHGLEFNGQISFLKAGLYYADHITAVSPTYAREITEPQFAYGMEGLLQQRHREGRLSGVLNGVDEKIWSPETDLLLASRYTRDTLEDKAENKRQLQIAMGLKVDDKVPLFAVVSRLTSQKGLDLVLEALPGLLEQGGQLALLGAGDPVLQEGFLAAAAEYPGQVGVQIGYHEAFSHRIMGGADVILVPSRFAPCGLTQLYGLKYGTLPLVRRTGGLADTVSDCSLENLADGVASGFVFEDSNAWSLLRAIRRAFVLWSRPSLWRFVQRQAMAMDFSWQVAAKSYRELYYRLKLEHHHHHH", "soluble on expression in E. coli": "soluble"}
{"sequence": "MQVLVRDNNVDQALRALKKKMQREGIFREMKMRGYYEKPSEKRAREKAEAVRRTRKLARKRAQREGLISNGRGSPLKLEHHHHHH", "soluble on expression in E. coli": "not soluble"}
{"sequence": "MQWETVIGLEIHAQLATQSKIFSGSSTAFGAAPNTQASLVDLAMPGTLPVLNEEAVRMACLFGLAIDARIDRQNVFARKNYFYPDLPKGYQTSQMDHPIVGKGHLDITLEDGTTKRIGITRAHLEEDAGKSLHEDFQGMSGIDLNRAGTPLLEIVSEPDIRSAKEAVAYVKAIHALVRYLGICDGNMAEGSLRCDCNVSVRPKGQAEFGTRAEIKNVNSFRFIEKAINHEIQRQIELIEDGGKVVQETRLYDPNKDETRSMRGKEEANDYRYFPCPDLLPVVIEPEYLAKLREQLPELPVQKRERFESQYGLSAYDASVLSASREMADYFEKVQGICGDAKLAANWVMVELGSLLNKDGLEIEQSPVSAEQLGGMILRIKDNTISGKLAKMVFEAMANGEGSADQIIEAKGLKQVTDSGAIEKMLDEVLAANAEQVEQYRAADEAKRGKMFGFFVGQAMKASKGKANPQQVNELLKKKLEA", "soluble on expression in E. coli": "not soluble"}
{"sequence": "MQYKLILNGKTLKGETTTEAVDAATAEKVFKQYANDNGVDGEWTYDDATKTFTVTEGSMAGGAWGRLACYLEFLKKEELKEFQLLLANKAHSRSSSGETPAQPEKTSGMEVASYLVAQYGEQRAWDLALHTWEQMGLRSLCAQAQEGAGHSLEHHHHHH", "soluble on expression in E. coli": "soluble"}
{"sequence": "MQYLEKKEIKEIQLALLDYIDETCKKHDIPYFLSYGTMLGAIRHKGMIPWDDDIDISLYREDYERLLKIIEEENHPRYKVLSYDTSSWYFHNFASILDTSTVIEDHVKYKRHDTSLFIDVFPIDRFTDLSIVDKSYKYVALRQLAYIKKSRAVHGDSKLKDFLRLCSWYALRFVNPRYFYKKIDQLVKNAVTNTPQYEGGVGIGKEGMKEIFPVDTFKELILTEFEGRMLPVPKKYDQFLTQMYGDYMTPPSKEMQEWYSHSIKAYRKNLEHHHHHH", "soluble on expression in E. coli": "soluble"}
{"sequence": "MRADELPSKEEIEMHKDSCKYFSNDTEEEETEDEEENGEVAHAKAVAEEFGKSSKSKNVSSSMELDDEVAEGLKELDMDNYDEEDDGIEIFSSGRGDLYYKSNEMDPYLKRNDDHDDDSDDDPPILPTDLVIVCAMTDDKEANRLDVYVSEDTSHGSPNMYNHHYRIIPAIPLCTAWLDCPLKGGERGNFLAVGSDGTPTIEIWDLDAWFDMLPCVQLGGQNKEGNYKQGSHTRSVLGLAWNKEFRNILASASADKKVKVWDVATGTCKITMEHHTKEVQAVAWNHYAPEVLLSGSFDQTVVLKDGRQPSHSGFKWSVMSDVESLAWDPHSEHSFVVSLEDGTVKGFDVRQASISASESNPSFTINGHDEAATSVSYNISAPNLLATGSKDRTVKLWDLSNNEPSCIATHNPNAGGLFFIAFSPDNPFLLAMGGVMGELKLWDTLSDTNVSSRYGSREVRP", "soluble on expression in E. coli": "soluble"}
{"sequence": "MRALPICLVALMLSGCSMLSRSPVEPVQSTAPQPKAEPAKPKAPRATPVRIYTNAEELVGKPFRDLGEVSGDSCQASNQDSPPSIPTARKRMQINASKMKANAVLLHSCEVTSGTPGCYRQAVCIGSALNITAKLEHHHHHH", "soluble on expression in E. coli": "not soluble"}
{"sequence": "MRAMNDRLPSFCTPLDDRWPLPVALPGVQLRSTRFDPALLQPGDFALAGIQPPANILRAVAKRQAEFLAGRLCARAALFALDGRAQTPAVGEDRAPVWPAAISGSITHGDRWAAALVAARGDWRGLGLDVETLLEAERARYLHGEILTEGERLRFADDLERRTGLLVTLAFSLKESLFKALYPLVGKRFYFEHAELLEWRADGQARLRLLTDLSPEWRHGSELDAQFAVLDGRLLSLVAVGA", "soluble on expression in E. coli": "not soluble"}
{"sequence": "MRAVFRTDIGQIREHNEDSGGVFVNQSGQYLAVVADGMGGHRAGDVASSMAVAYLQERWEKESSLASPAEAEQWLKTQIAAANEQLFRHACSHPECQGMGTTVVAAVCANSFATVAHIGDSRCYVLNKSGIQQLTDDHSLVNELVKSGQLSKEAAEHHPRKNVLLRALGTEPAVKIDVKTVALDEGDMLLLCSDGLSNKVPEADMIHILTGAGTLEEKAEALIQLANGRGGEDNISLAVIDVSAEREGG", "soluble on expression in E. coli": "soluble"}
{"sequence": "MRCVYCHNAQLQEFAPGAVGVDDLVGLARRRIGLIDAVVISGGEPTAVPGLAEAICRIHDLGLPVGLHTCGYAPKRLATLVSQPESRPDWIGLDIKALPRHMHEITGCSPRVAQSCWESLAIIDAVGIEVQTRTTLWPGSVIEQNLRELEVMVAAQGHELVVQQARF", "soluble on expression in E. coli": "not soluble"}
{"sequence": "MRDATPFYEATGHEIEVFERAWRHGLPVLLKGPTGCGKTRFVQYMARRLELPLYSVACHDDLGAADLLGRHLIGADGTWWQDGPLTRAVREGGICYLDEVVEARQDTTVAIHPLADDRRELYLERTGETLQAPPSFMLVVSYNPGYQNLLKGLKPSTRQRFVALRFDYPAAQQEARILVGESGCAETLAQRLVQLGQALRRLEQHDLEEVASTRLLIFAARLIGDGMDPREACRVALAEPLSDDPATVAALMDIVDLHVALEHHHHHH", "soluble on expression in E. coli": "not soluble"}
{"sequence": "MRDMIIVVPIGEVPSDVLSFLSENIESFYMKFGIGVKIIGSLPISAFSHAYDFYRNQYLARHFLPALSIIRRDYKALAVMGVTEVDLYESGLNFIFGIAHPGFGVALISLHRLYPEFYGEPPDRKLLKERALKEAMHELGHVFGLEHCPNPKCVMHFSNSIIDTDIKSWMYCKNCLRKLEERLGRGYVRGRTLEHHHHHH", "soluble on expression in E. coli": "not soluble"}
{"sequence": "MRDVAIIGVKNTKFGELWERSLRDIVVEAGIGAIQDAGVSGKDIDALYIGNMSGGRFVEQEHIGALIADYSGLSRNLHVPATRVEAACASGGLALRQAIMAVASGYSEIVVAAGAEKMTDVGSEEASSALAAAADREWEGMAGATFPGLYAMIAKLHMHMYGTTGEQLAEVAVKNHKNGSFNPIAQYKNTITVDNVLNSIMVADPLHIFDCSPITDGASALVLAPAEIAHKYTDTPIYIKATAQASDTIALHDRRDITTLDATVMAAKRAYSMAKLTPEDIDLVEVHDCFTIAEICAIEDLGFAEKGKGGIVTENGETAIGGRIPVNTSGGLKACGHPVGATGIKQAVEIVTQLRGEAGKRQVEGAEYGMTHNVGGSGATAVVHIFSRGM", "soluble on expression in E. coli": "not soluble"}
{"sequence": "MRDVQKQYNKQEGFVQGYSIIDSYSEDEIPKDGKRSTIQLVHEMGLEKARRIYGENYQCLVATQCDGKSGLYHNHLISNAVGNDGKSQRGDMTKWTKLAEISDQVMIDYGYTPLDKNNWRLNKTRKAEARSKGEYVSPNERKARKNGMTLAKDEVREQIQKVIDDETVKSFEDFKQMLNEEYQIGVEDAGTKDGENIKYSFSYTNKKGETSEKTIKAKTLSKEDYTLSGVKSKIEDKLLETGNFEINENDLTQQQQQMLSNLIVPEDDEDELELEFDDESLAFLDQINEEVKEYGREKHSSKATRNNQRVEKQHRDHQRHVENNERSTTRTKSSSKRAKDKDAGFELG", "soluble on expression in E. coli": "not soluble"}
{"sequence": "MRETHLRSILHTIPDAMIVIDGHGIIQLFSTAAERLFGWSELEAIGQNVNILMPEPDRSRHDSYISRYRTTSDPHIIGIGRIVTGKRRDGTTFPMHLSIGEMQSGGEPYFTGFVRDLTEHQQTQARLQELQ", "soluble on expression in E. coli": "soluble"}
{"sequence": "MREVLLEKLRTEKFLQIALDFIDINDAIKVVNEVKDLENEIIEIGTPLLKSFGIEGIRKIKSLVPDKIIVADTKTADAGDVEVEIAKLGGAHIMTVLGIMDDSTIYSAVKKARELDILVQADLINVKNVYERSKELKQLGVDIIGFHVGLDVQKSRGISVADLKNEIRKVSELNLIISIAGGLNKDRILELIDLPVSIYVVGGAITRSKEPKNVSKEIVNILKGR", "soluble on expression in E. coli": "not soluble"}
{"sequence": "MRFFIALPAHAKRCRRAWRMEFISALPVGFAMNRRGLELRELLPLIPAEKLLIETDAPYLLPRDLTPKPSSRRNEPAHLPHILQRIAHWRGEDAAWLAATTDANVKTLFGIAFLEHHHHHH", "soluble on expression in E. coli": "not soluble"}
{"sequence": "MRFITIAAVLLVSSLLIVEASSIRDKRQSCGCASQVQPSCSCQQATQPQQYSCSCQNTAPVQTSCSCAQPVQQVTYQVQTSQCAPACQQSCQNQCQFAPSMNECQSSCQQTCQTSSCYTQIAAPAPVQCQPSCMPACEQSCVAPAPVTVQCVPQCQQKCTQQCVQAQPIQQCQPQCQQQCVQQCAPTVAPQVINVNLGISAQCAPQCQQQCQQQCLLQQVPVQQCYQECTQPCQTTCQQAAPQCVQQCAPQCQQPSAPQCQQCQNTCQQYAPVCQQQCAPQCTLPSAPACQQCQTSCQQTQQCQQQCIPQCQQPAAPQCQQCQSACQSPVVAPQIVTVILEPSVSQSAQCVPQCQQSCQQQCIQQQQPMQQCAPACTQSCYQSCSTAQLVQMPCLTQSVNSCSCQQNYSPCGNGQCCKRM", "soluble on expression in E. coli": "not soluble"}
{"sequence": "MRGLRKEALEELMKLLNMKDFPYRIEGIDISHLQGKYTVASLVVFEDGFPKKGDYRRYKIEQDHPDDYESIRTVVKRRYSKHPLPNLLFVDGGIGQVNAAIEALKEIGKDCPVVGLAKKEETVVFENREIHLPHDHPVLRLLVQIRDETHRFAVSYHRKRREKESLRSVLDNVPGIGPIRKKKLIEHFGSLENIRSASLEEIARVIGSTEIARRVLDILG", "soluble on expression in E. coli": "soluble"}
{"sequence": "MRGLSRRVQAMKPDAVVAVNAKALELRRQGVDLVALTAGEPDFDTPEHVKEAARRALAQGKTKYAPPAGIPELREALAEKFRRENGLSVTPEETIVTVGGSQALFNLFQAILDPGDEVIVLSPYWVSYPEMVRFAGGVVVEVETLPEEGFVPDPERVRRAITPRTKALVVNSPNNPTGAVYPKEVLEALARLAVEHDFYLVSDEIYEHLLYEGEHFSPGRVAPEHTLTVNGAAKAFAMTGWRIGYACGPKEVIKAMASVSRQSTTSPDTIAQWATLEALTNQEASRAFVEMAREAYRRRRDLLLEGLTALGLKAVRPSGAFYVLMDTSPIAPDEVRAAERLLEAGVAVVPGTDFAAFGHVRLSYATSEENLRKALERFARVLGRA", "soluble on expression in E. coli": "soluble"}
{"sequence": "MRGSHHHHHHGMASMTGGQQMGRDLYDDDDKMSVIKPEMKMKYFMDGSVNGHEFTVEGEGTGKPYEGKHKITLDVTKGGPLPFAFDLLSTVFSYGNRCLTKYPDDIPDYFKQCFPGGYSWERKFEFEDGGLAIAKAEISLKGNCFEHKSTIEGTFPDSSPIAQNKTLGWEPSTEKMTVRDGSMKGDDAAYLKLVGGGNHKCYFTTTYTAKKKIPNLPQSHFIGHRISSVVNGTKIGVMEDAIAHLYPFNGVPCQ", "soluble on expression in E. coli": "soluble"}
{"sequence": "MRGSHHHHHHGSTTFNIQDGPDFQDRVVNSETPVVVDFHAQWCGPCKILGPRLEKMVAKQHGKVVMAKVDIDDHTDLAIEYEVSAVPTVLAMKNGDVVDKFVGIKDEDQLEAFLKKLIG", "soluble on expression in E. coli": "soluble"}
{"sequence": "MRGSHHHHHHMDYASVAMAAAPTTTTTTNVSLRRQRHRKEKLLVLMGATGTGKSRLSIDLAAHFPLEVINSDKMQVYKGLDITTNKISVPDRGGVPHHLLGEVDPARGELTPADFRSLAGKAVSEITGRRKLPVLVGGSNSFIHALLVDRFDSSGPGVFEEGSHSVVSSELRYDCCFLWVDVSVKVLTDYLAKRVDDMLELGMFDELAEFYSPEDEDHDEDSATRTGLRKAIGVPEFDRYFEKFRPGDVEGEDPGRDRVRRGAFEEAVRAIKENTCHLAKRQIGKILRLKGAGWDLRRLDATESFRAAMTSDSGEKCTEIWEKQVLEPSVKIVSRFLDE", "soluble on expression in E. coli": "soluble"}
